Assay results as given in IntAct's records for PubMed 35512704.

B1: Mothers against decapentaplegic homolog 4 (Homo sapiens), Q13485 (parent)
chain: MDNMSITNTPTSNDACLSIVHSLMCHRQGGESETFAKRAIESLVKKLKEKKDELDSLITAITTNGAHPSKCVTIQRTLDGRLQVAGRKGFPHVIYARLWRWPDLHKNELKHVKYCQYAFDLKCDSVCVNPYHYERVVSPGIDLSGLTLQSNAPSSMMVKDEYVHDFEGQPSLSTEGHSIQTIQHPPSNRASTETYSTPALLAPSESNATSTANFPNIPVASTSQPASILGGSHSEGLLQIASGPQPGQQQNGFTGQPATYHHNSTTTWTGSRTAPYTPNLPHHQNGHLQHHPPMPPHPGHYWPVHNELAFQPPISNHPAPEYWCSIAYFEMDVQVGETFKVPSSCPIVTVDGYVDPSGGDRFCLGQLSNVHRTEAIERARLHIGKGVQLECKGEGDVWVRCLSDHAVFVQSYYLDREAGRAPGDAVHKIYPSAYIKVFDLRQCHRQMQQQAATAQAAAAAQAAAVAGNIPGPGSVGGIAPAISLSAAAGIGVDDLRRLCILRMSFVKGWGPDYPRQSIKETPCWIEIHLHRALQLLDEVLHTMPIADPQPLD

Variants of: B1
Conditions: with e2f3_human E2F3, O00716
Sequence of e2f3_human E2F3, O00716 (O00716 whole entry): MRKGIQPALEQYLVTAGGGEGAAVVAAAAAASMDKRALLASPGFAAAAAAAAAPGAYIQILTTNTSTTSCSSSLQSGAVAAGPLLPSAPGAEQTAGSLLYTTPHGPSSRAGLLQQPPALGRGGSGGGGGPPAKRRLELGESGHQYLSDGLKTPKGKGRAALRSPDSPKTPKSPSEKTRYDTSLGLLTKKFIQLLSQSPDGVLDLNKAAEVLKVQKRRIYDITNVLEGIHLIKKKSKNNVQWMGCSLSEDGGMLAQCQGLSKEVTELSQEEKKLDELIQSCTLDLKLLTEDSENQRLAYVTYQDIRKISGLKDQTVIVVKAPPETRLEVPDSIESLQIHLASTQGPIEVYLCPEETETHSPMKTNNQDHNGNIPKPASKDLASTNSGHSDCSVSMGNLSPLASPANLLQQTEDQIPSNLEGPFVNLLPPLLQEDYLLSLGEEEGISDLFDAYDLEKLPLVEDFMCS

Variant	effect of a mutation on the interaction
D351H	with no effect

Variants of: B1
Conditions: with e2f4_human E2F4, Q16254

Variant	effect of a mutation on the interaction
D351H	with no effect

Variants of: B1
Conditions: with e2f5_human E2F5, Q15329
Sequence of e2f5_human E2F5, Q15329 (Q15329 whole entry): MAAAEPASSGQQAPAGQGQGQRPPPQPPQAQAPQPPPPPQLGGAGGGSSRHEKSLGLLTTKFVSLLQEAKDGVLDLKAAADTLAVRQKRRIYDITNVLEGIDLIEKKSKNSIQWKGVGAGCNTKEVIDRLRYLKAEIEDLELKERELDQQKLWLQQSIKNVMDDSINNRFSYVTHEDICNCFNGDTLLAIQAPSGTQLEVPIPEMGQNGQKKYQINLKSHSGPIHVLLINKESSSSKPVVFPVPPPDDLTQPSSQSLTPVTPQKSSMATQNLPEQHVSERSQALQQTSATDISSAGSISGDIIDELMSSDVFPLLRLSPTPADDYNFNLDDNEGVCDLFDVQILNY

Variant	effect of a mutation on the interaction
D351H	with no effect

Variants of: B1
Conditions: with if4e_human EIF4E

Variant	effect of a mutation on the interaction
D351H	with no effect

Variants of: B1
Conditions: with epha7_human EPHA7, Q15375

Variant	effect of a mutation on the interaction
D351H	with no effect

Variants of: B1
Conditions: with ephb1_human EPHB1, P54762

Variant	effect of a mutation on the interaction
D351H	with no effect

Variants of: B1
Conditions: with erbb3_human ERBB3, P21860

Variant	effect of a mutation on the interaction
D351H	with no effect

Variants of: B1
Conditions: with erbb4_human ERBB4, Q15303

Variant	effect of a mutation on the interaction
D351H	with no effect

Variants of: B1
Conditions: with esr1_human ESR1, P03372

Variant	effect of a mutation on the interaction
D351H	with no effect

Variants of: B1
Conditions: with etv1_human ETV1, P50549

Variant	effect of a mutation on the interaction
D351H	with no effect

Variants of: B1
Conditions: with fadd_human FADD

Variant	effect of a mutation on the interaction
D351H	with no effect

Variants of: B1
Conditions: with facd2_human FANCD2, Q9BXW9

Variant	effect of a mutation on the interaction
D351H	with no effect

Variants of: B1
Conditions: with fgf19_human FGF19, O95750
Sequence of fgf19_human FGF19, O95750 (O95750 whole entry): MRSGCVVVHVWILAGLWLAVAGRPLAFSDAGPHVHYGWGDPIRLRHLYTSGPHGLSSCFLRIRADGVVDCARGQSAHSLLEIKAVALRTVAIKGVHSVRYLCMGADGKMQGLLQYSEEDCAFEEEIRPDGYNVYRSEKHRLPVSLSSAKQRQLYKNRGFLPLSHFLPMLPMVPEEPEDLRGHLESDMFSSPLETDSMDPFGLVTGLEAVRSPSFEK

Variant	effect of a mutation on the interaction
D351H	with no effect

Variants of: B1
Conditions: with fgfp1_human FGFBP1, Q14512

Variant	effect of a mutation on the interaction
D351H	with no effect

Variants of: B1
Conditions: with fgfr3_human FGFR3, P22607

Variant	effect of a mutation on the interaction
D351H	with no effect

Variants of: B1
Conditions: with fgfr4_human FGFR4, P22455

Variant	effect of a mutation on the interaction
D351H	with no effect

Variants of: B1
Conditions: with fumh_human FH

Variant	effect of a mutation on the interaction
D351H	with no effect

Variants of: B1
Conditions: with foxo1_human FOXO1, Q12778

Variant	effect of a mutation on the interaction
D351H	with no effect

Variants of: B1
Conditions: with foxo3_human FOXO3, O43524

Variant	effect of a mutation on the interaction
D351H	with no effect

Variants of: B1
Conditions: with gbra6_human GABRA6, Q16445
Sequence of gbra6_human GABRA6, Q16445 (Q16445 whole entry): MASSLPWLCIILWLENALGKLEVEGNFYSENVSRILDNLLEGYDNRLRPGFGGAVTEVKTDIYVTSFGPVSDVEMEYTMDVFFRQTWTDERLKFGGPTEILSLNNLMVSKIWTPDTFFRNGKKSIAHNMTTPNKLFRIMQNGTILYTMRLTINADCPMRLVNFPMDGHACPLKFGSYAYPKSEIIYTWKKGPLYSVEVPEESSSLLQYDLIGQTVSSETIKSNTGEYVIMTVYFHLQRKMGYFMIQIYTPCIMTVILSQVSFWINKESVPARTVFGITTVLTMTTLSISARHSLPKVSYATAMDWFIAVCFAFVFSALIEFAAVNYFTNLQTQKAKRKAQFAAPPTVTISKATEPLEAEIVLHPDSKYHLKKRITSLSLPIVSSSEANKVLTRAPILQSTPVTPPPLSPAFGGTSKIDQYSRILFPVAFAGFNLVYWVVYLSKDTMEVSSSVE

Variant	effect of a mutation on the interaction
D351H	with no effect

Variants of: B1
Conditions: with gata2_human GATA2, P23769
Sequence of gata2_human GATA2, P23769 (P23769 whole entry): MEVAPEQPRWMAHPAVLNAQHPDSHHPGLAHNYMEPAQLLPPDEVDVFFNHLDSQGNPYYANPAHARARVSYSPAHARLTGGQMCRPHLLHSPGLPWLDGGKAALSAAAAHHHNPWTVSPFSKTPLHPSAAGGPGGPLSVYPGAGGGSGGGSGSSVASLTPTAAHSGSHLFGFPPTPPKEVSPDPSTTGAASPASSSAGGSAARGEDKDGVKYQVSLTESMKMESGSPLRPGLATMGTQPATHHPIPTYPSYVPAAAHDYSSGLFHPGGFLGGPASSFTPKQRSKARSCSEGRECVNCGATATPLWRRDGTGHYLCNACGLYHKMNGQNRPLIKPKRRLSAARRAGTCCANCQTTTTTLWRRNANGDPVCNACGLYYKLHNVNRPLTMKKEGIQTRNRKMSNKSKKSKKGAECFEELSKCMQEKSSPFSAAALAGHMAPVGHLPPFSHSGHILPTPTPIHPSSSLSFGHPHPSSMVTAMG

Variant	effect of a mutation on the interaction
D351H	with no effect

Variants of: B1
Conditions: with gata3_human GATA3, P23771

Variant	effect of a mutation on the interaction
D351H	with no effect

Variants of: B1
Conditions: with gna11_human GNA11, P29992

Variant	effect of a mutation on the interaction
D351H	with no effect

Variants of: B1
Conditions: with gna13_human GNA13, Q14344
Sequence of gna13_human GNA13, Q14344 (Q14344 whole entry): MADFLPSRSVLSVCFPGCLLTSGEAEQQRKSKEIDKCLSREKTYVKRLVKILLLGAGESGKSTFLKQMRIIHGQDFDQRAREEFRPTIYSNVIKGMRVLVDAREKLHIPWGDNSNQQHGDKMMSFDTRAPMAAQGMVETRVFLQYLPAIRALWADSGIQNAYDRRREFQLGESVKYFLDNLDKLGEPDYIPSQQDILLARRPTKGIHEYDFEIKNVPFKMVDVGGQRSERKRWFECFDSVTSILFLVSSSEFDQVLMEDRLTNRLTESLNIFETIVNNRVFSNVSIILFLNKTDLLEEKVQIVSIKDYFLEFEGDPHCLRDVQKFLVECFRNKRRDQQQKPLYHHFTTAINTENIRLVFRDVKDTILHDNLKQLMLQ

Variant	effect of a mutation on the interaction
D351H	with no effect

Variants of: B1
Conditions: with gnaq_human GNAQ

Variant	effect of a mutation on the interaction
D351H	with no effect

Variants of: B1
Conditions: with grb7_human GRB7, Q14451
Sequence of grb7_human GRB7, Q14451 (Q14451 whole entry): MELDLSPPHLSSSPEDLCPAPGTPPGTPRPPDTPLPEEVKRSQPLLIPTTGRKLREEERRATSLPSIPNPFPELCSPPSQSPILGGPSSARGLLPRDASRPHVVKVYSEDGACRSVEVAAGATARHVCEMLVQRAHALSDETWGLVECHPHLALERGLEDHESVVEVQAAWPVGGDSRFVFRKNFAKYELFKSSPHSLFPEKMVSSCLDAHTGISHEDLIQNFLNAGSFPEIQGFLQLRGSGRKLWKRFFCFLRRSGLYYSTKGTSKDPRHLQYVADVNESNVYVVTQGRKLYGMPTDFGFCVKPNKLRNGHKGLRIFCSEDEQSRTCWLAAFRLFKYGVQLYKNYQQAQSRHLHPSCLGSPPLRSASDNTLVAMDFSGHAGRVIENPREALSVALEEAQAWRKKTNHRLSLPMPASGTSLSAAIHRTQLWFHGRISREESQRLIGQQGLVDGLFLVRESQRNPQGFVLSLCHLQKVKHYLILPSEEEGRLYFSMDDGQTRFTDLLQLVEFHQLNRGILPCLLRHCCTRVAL

Variant	effect of a mutation on the interaction
D351H	with no effect

Variants of: B1
Conditions: with grm1_human GRM1, Q13255

Variant	effect of a mutation on the interaction
D351H	with no effect

Variants of: B1
Conditions: with grm3_human GRM3, Q14832
Sequence of grm3_human GRM3, Q14832 (Q14832 whole entry, looked up): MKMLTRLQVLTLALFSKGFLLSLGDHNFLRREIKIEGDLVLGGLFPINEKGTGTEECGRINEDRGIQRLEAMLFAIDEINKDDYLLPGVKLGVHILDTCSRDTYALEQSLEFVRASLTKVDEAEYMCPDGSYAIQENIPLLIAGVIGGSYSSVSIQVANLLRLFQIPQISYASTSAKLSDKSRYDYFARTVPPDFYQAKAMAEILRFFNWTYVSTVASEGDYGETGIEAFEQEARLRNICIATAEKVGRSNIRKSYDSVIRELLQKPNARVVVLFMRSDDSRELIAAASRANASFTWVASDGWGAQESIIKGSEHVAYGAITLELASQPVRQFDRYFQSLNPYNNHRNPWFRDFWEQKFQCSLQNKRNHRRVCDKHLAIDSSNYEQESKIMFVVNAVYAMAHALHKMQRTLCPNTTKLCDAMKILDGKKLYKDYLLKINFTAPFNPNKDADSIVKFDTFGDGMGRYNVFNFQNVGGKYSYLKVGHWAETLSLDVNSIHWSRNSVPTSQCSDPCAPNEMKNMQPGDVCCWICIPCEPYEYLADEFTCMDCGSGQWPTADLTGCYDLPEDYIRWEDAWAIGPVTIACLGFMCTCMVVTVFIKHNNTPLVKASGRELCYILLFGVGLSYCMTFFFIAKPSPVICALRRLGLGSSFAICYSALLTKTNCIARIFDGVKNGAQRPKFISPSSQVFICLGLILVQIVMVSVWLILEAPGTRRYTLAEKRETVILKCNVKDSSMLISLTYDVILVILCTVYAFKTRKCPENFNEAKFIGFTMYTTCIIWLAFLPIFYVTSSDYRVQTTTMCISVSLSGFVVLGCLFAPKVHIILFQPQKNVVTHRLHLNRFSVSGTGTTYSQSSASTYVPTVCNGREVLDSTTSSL

Variant	effect of a mutation on the interaction
D351H	with no effect

Variants of: B1
Conditions: with gsk3a_human GSK3A

Variant	effect of a mutation on the interaction
D351H	with no effect

Variants of: B1
Conditions: with hdac1_human HDAC1, Q13547

Variant	effect of a mutation on the interaction
D351H	with no effect

Variants of: B1
Conditions: with hdac3_human HDAC3, O15379

Variant	effect of a mutation on the interaction
D351H	with no effect

Variants of: B1
Conditions: with hgf_human HGF

Variant	effect of a mutation on the interaction
D351H	with no effect

Variants of: B1
Conditions: with h31_human H3C1, P68431

Variant	effect of a mutation on the interaction
D351H	with no effect

Variants of: B1
Conditions: with hlab_human HLA-B

Variant	effect of a mutation on the interaction
D351H	with no effect

Variants of: B1
Conditions: with rash_human HRAS

Variant	effect of a mutation on the interaction
D351H	with no effect

Variants of: B1
Conditions: with hs90a_human HSP90AA1, P07900

Variant	effect of a mutation on the interaction
D351H	with no effect

Variants of: B1
Conditions: with il7ra_human IL7R

Variant	effect of a mutation on the interaction
D351H	with no effect

Variants of: B1
Conditions: with irf6_human IRF6, O14896

Variant	effect of a mutation on the interaction
D351H	with no effect

Variants of: B1
Conditions: with irs1_human IRS1, P35568

Variant	effect of a mutation on the interaction
D351H	with no effect

Variants of: B1
Conditions: with jak1_human JAK1, P23458
Sequence of jak1_human JAK1, P23458 (P23458 whole entry): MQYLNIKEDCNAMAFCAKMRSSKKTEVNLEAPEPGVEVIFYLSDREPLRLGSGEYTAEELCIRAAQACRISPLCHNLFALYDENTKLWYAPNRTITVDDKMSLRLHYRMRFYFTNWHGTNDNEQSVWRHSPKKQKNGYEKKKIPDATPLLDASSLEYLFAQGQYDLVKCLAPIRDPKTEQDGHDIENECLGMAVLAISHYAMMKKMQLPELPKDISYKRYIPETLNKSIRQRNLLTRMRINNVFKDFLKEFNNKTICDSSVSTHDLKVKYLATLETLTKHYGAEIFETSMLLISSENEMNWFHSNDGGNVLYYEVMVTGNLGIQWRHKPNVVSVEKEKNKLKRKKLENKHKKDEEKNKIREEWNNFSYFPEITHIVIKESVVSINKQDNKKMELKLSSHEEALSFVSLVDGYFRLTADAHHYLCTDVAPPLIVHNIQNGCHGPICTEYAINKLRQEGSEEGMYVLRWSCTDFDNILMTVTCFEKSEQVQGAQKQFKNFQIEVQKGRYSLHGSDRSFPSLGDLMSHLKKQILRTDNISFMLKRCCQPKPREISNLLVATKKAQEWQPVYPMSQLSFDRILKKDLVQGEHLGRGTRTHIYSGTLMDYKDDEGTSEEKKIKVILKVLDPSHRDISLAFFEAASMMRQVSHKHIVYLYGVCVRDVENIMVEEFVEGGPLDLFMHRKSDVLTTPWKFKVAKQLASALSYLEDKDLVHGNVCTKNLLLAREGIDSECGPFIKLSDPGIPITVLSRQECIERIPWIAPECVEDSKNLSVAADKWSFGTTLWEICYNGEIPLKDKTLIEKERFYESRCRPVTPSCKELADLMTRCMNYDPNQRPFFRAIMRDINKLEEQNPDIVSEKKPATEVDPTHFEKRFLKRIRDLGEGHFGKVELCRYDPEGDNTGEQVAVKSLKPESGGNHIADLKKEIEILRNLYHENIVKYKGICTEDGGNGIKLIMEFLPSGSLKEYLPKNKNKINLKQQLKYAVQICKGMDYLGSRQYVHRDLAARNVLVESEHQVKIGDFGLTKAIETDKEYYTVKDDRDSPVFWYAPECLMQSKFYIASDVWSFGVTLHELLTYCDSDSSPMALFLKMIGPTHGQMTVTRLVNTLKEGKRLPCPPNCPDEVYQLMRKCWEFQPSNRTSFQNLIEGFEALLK

Variant	effect of a mutation on the interaction
D351H	with no effect

Variants of: B1
Conditions: with kat2a_human KAT2A

Variant	effect of a mutation on the interaction
D351H	with no effect

Variants of: B1
Conditions: with kdm5c_human KDM5C

Variant	effect of a mutation on the interaction
D351H	with no effect

Variants of: B1
Conditions: with kdm6a_human KDM6A

Variant	effect of a mutation on the interaction
D351H	with no effect

Variants of: B1
Conditions: with vgfr2_human KDR

Variant	effect of a mutation on the interaction
D351H	with no effect
